Source: US20250136677A1 (ZOETIS SERVICES, published 2025)

Columns and labels:
[1] = biological target: T1, wildtype feline IL-31 protein (Feline_IL31_wildtype) (feline); experiment: cell-based or functional assay
T1 chain: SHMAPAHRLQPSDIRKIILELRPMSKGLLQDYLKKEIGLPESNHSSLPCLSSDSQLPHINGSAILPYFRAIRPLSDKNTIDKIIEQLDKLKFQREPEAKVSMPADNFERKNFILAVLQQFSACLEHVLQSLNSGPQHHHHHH

[2] = biological target: T1, wildtype feline IL-31 protein …; experiment: Biacore, feline IL-31 chip, mAb 100 nM, share of points within parent mean +/-3 SD; set-up: key: % of mutant data points within parent mAb mean ±3 SD
Excerpt: The mean response unit of four replicates of the parent mAb+/−3 standard deviations was used to generate parameters to define a threshold of response units comprising both the on- and off-rates antibody binding (FIG. 22). The percentage of data points for each mutant fell within this threshold was then used to define a “% similarity score” (FIG. 23).

[3] = biological target: T2, canine IL-31 protein (Canine_IL31) (canine); experiment: SPR (Biacore), IL-31 on chip, 1:1 fit
T2 chain: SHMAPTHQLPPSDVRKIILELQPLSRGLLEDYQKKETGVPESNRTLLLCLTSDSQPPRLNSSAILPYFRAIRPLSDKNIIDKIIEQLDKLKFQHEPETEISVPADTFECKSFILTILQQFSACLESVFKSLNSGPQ

[4] = biological target: T1, wildtype feline IL-31 protein …; experiment: SPR (Biacore), IL-31 on chip, 1:1 fit
Experimental: The affinity with which candidate mAbs bind canine and feline IL-31 was determined using surface plasmon resonance (SPR) on a Biacore system (Biocore Life Sciences (GE Healthcare), Uppsala, Sweden). To avoid affinity differences associated with differential surface preparation that can occur when immobilizing antibodies to surfaces; a strategy was employed where IL-31 was directly conjugated to the surface. Immobilization was obtained by amine coupling 5 μg/mL IL-31 using N-hydroxysuccinimide (NHS)/1-Ethyl-3-(3-dimethylaminopropyl) carbodiimide (EDC) chemistry. Chips were quenched with ethanolamine and the affinity with which all candidate mAbs bound to the immobilized IL-31 was evaluated. All curves were fit to a 1:1 model. […] Results for affinity measurements are described herein.

Binder	% Inhibition Relative to Parent (pSTAT, FCWF-4 cells) [1] [%]	Binding Similarity score [2]	koff [3] [s⁻¹]	kon [3] [M⁻¹ s⁻¹]	Kd [4] [nM]	koff [4] [s⁻¹]	kon [4] [M⁻¹ s⁻¹]
A30 (antibody, V domains shown) VH: QVLLVQSGAEVRTPGASVKIFCKASGYSFASYTIHWLRQAPAQGLEWMGNINPTSGYTENNQRFKDRLTLTADTSTNTAYMELSSLRSADTAMYYCARWGFKYDGEWSFDVWGAGTTVTVSS VL: EIQMTQSPSSLSASPGDRVTITCRASQGISIWLSWYQQKPGNIPKVLINKASNLHIGVPSRFSGSGSGTDFTLTISSLEPEDAATYYCLQSQTYPLTFGGGTKLEIK	28.4	79					
A32 (antibody, V domains shown) VH: QVLLVQSGAEVRTPGASVKIFCKASGYSFTAYTIHWLRQAPAQGLEWMGNINPTSGYTENNQRFKDRLTLTADTSTNTAYMELSSLRSADTAMYYCARWGFKYDGEWSFDVWGAGTTVTVSS VL: EIQMTQSPSSLSASPGDRVTITCRASQGISIWLSWYQQKPGNIPKVLINKASNLHIGVPSRFSGSGSGTDFTLTISSLEPEDAATYYCLQSQTYPLTFGGGTKLEIK	40.3	39.2					
A34 (antibody, V domains shown) VH: QVLLVQSGAEVRTPGASVKIFCKASGYSFTSYAIHWLRQAPAQGLEWMGNINPTSGYTENNQRFKDRLTLTADTSTNTAYMELSSLRSADTAMYYCARWGFKYDGEWSFDVWGAGTTVTVSS VL: EIQMTQSPSSLSASPGDRVTITCRASQGISIWLSWYQQKPGNIPKVLINKASNLHIGVPSRFSGSGSGTDFTLTISSLEPEDAATYYCLQSQTYPLTFGGGTKLEIK	0	3.37					
A35 (antibody, V domains shown) VH: QVLLVQSGAEVRTPGASVKIFCKASGYSFTSYTAHWLRQAPAQGLEWMGNINPTSGYTENNQRFKDRLTLTADTSTNTAYMELSSLRSADTAMYYCARWGFKYDGEWSFDVWGAGTTVTVSS VL: EIQMTQSPSSLSASPGDRVTITCRASQGISIWLSWYQQKPGNIPKVLINKASNLHIGVPSRFSGSGSGTDFTLTISSLEPEDAATYYCLQSQTYPLTFGGGTKLEIK	92.5	97.5					
A36 (antibody, V domains shown) VH: QVLLVQSGAEVRTPGASVKIFCKASGYSFTSYTIAWLRQAPAQGLEWMGNINPTSGYTENNQRFKDRLTLTADTSTNTAYMELSSLRSADTAMYYCARWGFKYDGEWSFDVWGAGTTVTVSS VL: EIQMTQSPSSLSASPGDRVTITCRASQGISIWLSWYQQKPGNIPKVLINKASNLHIGVPSRFSGSGSGTDFTLTISSLEPEDAATYYCLQSQTYPLTFGGGTKLEIK	25.2	10.4					
A37 (antibody, V domains shown) VH: QVLLVQSGAEVRTPGASVKIFCKASGYSFTSYTIHWLRQAPAQGLEWMGAINPTSGYTENNQRFKDRLTLTADTSTNTAYMELSSLRSADTAMYYCARWGFKYDGEWSFDVWGAGTTVTVSS VL: EIQMTQSPSSLSASPGDRVTITCRASQGISIWLSWYQQKPGNIPKVLINKASNLHIGVPSRFSGSGSGTDFTLTISSLEPEDAATYYCLQSQTYPLTFGGGTKLEIK	52.1	46.1					
A38 (antibody, V domains shown) VH: QVLLVQSGAEVRTPGASVKIFCKASGYSFTSYTIHWLRQAPAQGLEWMGNANPTSGYTENNQRFKDRLTLTADTSTNTAYMELSSLRSADTAMYYCARWGFKYDGEWSFDVWGAGTTVTVSS VL: EIQMTQSPSSLSASPGDRVTITCRASQGISIWLSWYQQKPGNIPKVLINKASNLHIGVPSRFSGSGSGTDFTLTISSLEPEDAATYYCLQSQTYPLTFGGGTKLEIK	42.2	55.1					
A39 (antibody, V domains shown) VH: QVLLVQSGAEVRTPGASVKIFCKASGYSFTSYTIHWLRQAPAQGLEWMGNIAPTSGYTENNQRFKDRLTLTADTSTNTAYMELSSLRSADTAMYYCARWGFKYDGEWSFDVWGAGTTVTVSS VL: EIQMTQSPSSLSASPGDRVTITCRASQGISIWLSWYQQKPGNIPKVLINKASNLHIGVPSRFSGSGSGTDFTLTISSLEPEDAATYYCLQSQTYPLTFGGGTKLEIK	25.1	100					
A40 (antibody, V domains shown) VH: QVLLVQSGAEVRTPGASVKIFCKASGYSFTSYTIHWLRQAPAQGLEWMGNINATSGYTENNQRFKDRLTLTADTSTNTAYMELSSLRSADTAMYYCARWGFKYDGEWSFDVWGAGTTVTVSS VL: EIQMTQSPSSLSASPGDRVTITCRASQGISIWLSWYQQKPGNIPKVLINKASNLHIGVPSRFSGSGSGTDFTLTISSLEPEDAATYYCLQSQTYPLTFGGGTKLEIK	5.7	2.7					
A42 (antibody, V domains shown) VH: QVLLVQSGAEVRTPGASVKIFCKASGYSFTSYTIHWLRQAPAQGLEWMGNINPASGYTENNQRFKDRLTLTADTSTNTAYMELSSLRSADTAMYYCARWGFKYDGEWSFDVWGAGTTVTVSS VL: EIQMTQSPSSLSASPGDRVTITCRASQGISIWLSWYQQKPGNIPKVLINKASNLHIGVPSRFSGSGSGTDFTLTISSLEPEDAATYYCLQSQTYPLTFGGGTKLEIK	83.6	44.9					
A43 (antibody, V domains shown) VH: QVLLVQSGAEVRTPGASVKIFCKASGYSFTSYTIHWLRQAPAQGLEWMGNINPTAGYTENNQRFKDRLTLTADTSTNTAYMELSSLRSADTAMYYCARWGFKYDGEWSFDVWGAGTTVTVSS VL: EIQMTQSPSSLSASPGDRVTITCRASQGISIWLSWYQQKPGNIPKVLINKASNLHIGVPSRFSGSGSGTDFTLTISSLEPEDAATYYCLQSQTYPLTFGGGTKLEIK	47.4	100					
Feline 15H05 2.2 (antibody, V domains shown, Feline heavy and kappa constant regions) VH: QVLLVQSGAEVRTPGASVKIFCKASGYGFTSYTIHWVRQSPAQGLEWMGNINPTSGYTENNQRFKDRLTLTADTSTNTAYMELSSLRSADTAMYYCARWGFKYDGEWSFDVWGAGTTVTVSS VL: EITMTQSPGSLAGSPGQQVTMNCRASQGISIWLSWYQQKPGQHPKLLIYKASNLHIGVPDRFSGSGSGTDFTLTISNLQAEDVASYYCLQSQTYPLTFGGGTKLEIK			1.09e-05	27700	2.15	0.00195	905000
Feline 15H05 3.2 (antibody, V domains shown, Feline heavy and kappa constant regions) VH: QVLLVQSGAEVRKPGASVKIFCKASGYSFTSYTIHWLRQAPEQGLEWMGNINPTSGYTENNQRFKDRLTLTADTSTNTAYMELSSLRSADTAMYYCARWGFKYDGEWSFDVWGAGTTVTVSS VL: EITMTQSPGSLAGSPGQQVTMNCRASQGISIWLSWYQQKPGQHPKLLIYKASNLHIGVPDRFSGSGSGTDFTLTISNLQAEDVASYYCLQSQTYPLTFGGGTKLEIK			6.04e-06	29700	12.6	0.00166	132000
Feline 15H05 1.3 (antibody, V domains shown, Feline heavy and kappa constant regions) VH: QVLLVQSGAEVRTPGASVKIFCKASGYSFTSYTIHWLRQAPAQGLEWMGNINPTSGYTENNQRFKDRLTLTADTSTNTAYMELSSLRSADTAMYYCARWGFKYDGEWSFDVWGAGTTVTVSS VL: EVVLTQSSAFLSRTLKEKATITCRASQGISIWLSWYQQKPNQAPKLLVKKASNLHIGAPSRFSGSGSGTDFTLTISSPEPEDAATYYCLQSQTYPLTFGGGTKLGDQ			0.00019	29700	86.4	0.00328	38000
